In patent US20050064507:

Tests used:
[1] = target: T1, ASIP peptide KKRSSKKEASMKKVVRP (SEQ ID NO:97) (not fully specified)
T1 chain: KKRSSKKEASMKKVVRP

[2] = target: T2, NIK peptide TEGKMARVAWKGKRRSKARK (SEQ ID NO:164) (not fully specified)
T2 chain: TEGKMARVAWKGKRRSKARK

[3] = target: T3, AKAP12 peptide AGWRKKTSFRKPKED (SEQ ID NO:99) (not fully specified)
T3 chain: AGWRKKTSFRKPKED

[4] = target: T4, PRKCA peptide RFARKGSLRQKNV (SEQ ID NO:85) (not fully specified)
T4 chain: RFARKGSLRQKNV

[5] = target: T5, PARIS1 peptide RELEQLKAEYLERRASRRRA (SEQ ID NO:148) (not fully specified)
T5 chain: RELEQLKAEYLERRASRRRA

[6] = target: T6, p47phox peptide QAQRQIKRGAPPRRSSIRNA (SEQ ID NO:146) (not fully specified)
T6 chain: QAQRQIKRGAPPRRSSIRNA

[7] = target: T7, DGKI peptide NRKKKRTSFKRKA (SEQ ID NO:79) (not fully specified)
T7 chain: NRKKKRTSFKRKA

[8] = target: T8, dag kinase iota peptide PQNSLKASNRKKKRTSFKRK (SEQ ID NO:151) (not fully specified)
T8 chain: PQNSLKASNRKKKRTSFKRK

[9] = target: T9, NF1 peptide AGSFKRNSIKKIV (SEQ ID NO:102) (not fully specified)
T9 chain: AGSFKRNSIKKIV

[10] = target: T10, GABRB2 peptide QKKSRLRRRASQLKI (SEQ ID NO:84) (not fully specified)
T10 chain: QKKSRLRRRASQLKI

[11] = target: T11, PLEC1 peptide KRERKTSSKSSVRKRR (SEQ ID NO:81) (not fully specified)
T11 chain: KRERKTSSKSSVRKRR

[12] = target: T12, calcium channel, voltage-dependent, L type, alpha peptide RDIRQSPKRGFLRSASLGRR (SEQ ID NO:147) (not fully specified)
T12 chain: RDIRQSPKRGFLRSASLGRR

[13] = target: T13, MCM2 peptide VQRHRSMRKTFARYLSFRRD (SEQ ID NO:129) (not fully specified)
T13 chain: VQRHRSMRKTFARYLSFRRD

[14] = target: T14, GABA A receptor beta 2 peptide ERHVAQKKSRLRRRASQLKI (SEQ ID NO:142) (not fully specified)
T14 chain: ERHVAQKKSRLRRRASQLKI

[15] = target: T15, NMDAR1 peptide RAITSTLASSFKRRR (SEQ ID NO:122) (not fully specified)
T15 chain: RAITSTLASSFKRRR

[16] = target: T16, ANK1 peptide AQIVKRASLKRGKQ (SEQ ID NO:90) (not fully specified)
T16 chain: AQIVKRASLKRGKQ

[17] = target: T17, ubiquitin specific protease 8 peptide RARRDSLKKIEIW (SEQ ID NO:136) (not fully specified)
T17 chain: RARRDSLKKIEIW

[18] = target: T18, dag kinase zeta peptide RPQNTLKASKKKKRASFKRK (SEQ ID NO:118) (not fully specified)
T18 chain: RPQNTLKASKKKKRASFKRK

[19] = target: T19, p164-RhoGEF peptide PRLIRRGSKKRPAR (SEQ ID NO:124) (not fully specified)
T19 chain: PRLIRRGSKKRPAR

[20] = target: T20, pkc-zeta peptide GLPAPGEDKSIYRRGSRRWR (SEQ ID NO:167) (not fully specified)
T20 chain: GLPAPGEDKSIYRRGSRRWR

[21] = target: T21, ERN1 peptide ISDFGLAKKLAVGRHSFSRR (SEQ ID NO:145) (not fully specified)
T21 chain: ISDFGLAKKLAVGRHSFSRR

[22] = target: T22, NF1 peptide SQVQKQRSAGSFKRNSIKKI (SEQ ID NO:127) (not fully specified)
T22 chain: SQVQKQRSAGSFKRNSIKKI

[23] = target: T23, p164-RhoGEF peptide PRLIRRGSKKRPAR (SEQ ID NO:82) (not fully specified)
T23 chain: PRLIRRGSKKRPAR

[24] = target: T24, beta adducin peptide KKKFRTPSFLKKSKK (SEQ ID NO:135) (not fully specified)
T24 chain: KKKFRTPSFLKKSKK

[25] = target: T25, SYTL4 peptide RQGKRKTSIKRDTVNPL (SEQ ID NO:87) (not fully specified)
T25 chain: RQGKRKTSIKRDTVNPL

[26] = target: T26, HERG peptide TELEGGFSRQRKRKLSFRRR (SEQ ID NO:140) (not fully specified)
T26 chain: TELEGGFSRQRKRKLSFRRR

[27] = target: T27, MARCKS peptide PSPSNETPKKKKKRFSFKKS (SEQ ID NO:157) (not fully specified)
T27 chain: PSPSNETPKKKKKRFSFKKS

[28] = target: T28, MARCKS peptide KKRFSFKKSFKLSGFSFKKN (SEQ ID NO:119) (not fully specified)
T28 chain: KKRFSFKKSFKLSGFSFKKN

[29] = target: T29, M1 muscarinic receptor peptide RWDKRRWRKIPKRPGSVHRT (SEQ ID NO:155) (not fully specified)
T29 chain: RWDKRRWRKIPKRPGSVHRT

B1: PKC-zeta (protein)
chain: MPSRTGPKMEGSGGRVRLKAHYGGDIFITSVDAATTFEELCEEVRDMCRLHQQHPLTLKWVDSEGDPCTVSSQMELEEAFRLARQCRDEGLIIHVFPSTPEQPGLPCPGEDKSIYRRGARRWRKLYRANGHLFQAKRFNRRAYCGQCSERIWGLARQGYRCINCKLLVHKRCHGLVPLTCRKHMDSVMPSQEPPVDDKNEDADLPSEETDGIAYISSSRKHDSIKDDSEDLKPVIDGMDGIKISQGLGLQDFDLIRVIGRGSYAKVLLVRLKKNDQIYAMKVVKKELVHDDEDIDWVQTEKHVFEQASSNPFLVGLHSCFQTTSRLFLVIEYVNGGDLMFHMQRQRKLPEEHARFYAAEICIALNFLHERGIIYRDLKLDNVLLDADGHIKLTDYGMCKEGLGPGDTTSTFCGTPNYIAPEILRGEEYGFSVDWWALGVLMFEMMAGRSPFDIITDNPDMNTEDYLFQVILEKPIRIPRFLSVKASHVLKGFLNKDPKERLGCRPQTGFSDIKSHAFFRSIDWDLLEKKQALPPFQPQITDDYGLDNFDTQFTSEPVQLTPDDEDAIKRIDQSEFEGFEYINPLLLSTEESV
[1]
  in vitro phosphorylation (% of best substrate): 1
[2]
  in vitro phosphorylation, 1 uM peptide (% of best substrate): 3
  in vitro phosphorylation, 10 uM peptide (% of best substrate): 2
[3]
  in vitro phosphorylation (% of best substrate): 10
[4]
  in vitro phosphorylation (% of best substrate): 56
[5]
  in vitro phosphorylation, 1 uM peptide (% of best substrate): 20
  in vitro phosphorylation, 10 uM peptide (% of best substrate): 20
[6]
  in vitro phosphorylation, 1 uM peptide (% of best substrate): 32
  in vitro phosphorylation, 10 uM peptide (% of best substrate): 56
[7]
  in vitro phosphorylation (% of best substrate): 18
[8]
  in vitro phosphorylation, 1 uM peptide (% of best substrate): 15
  in vitro phosphorylation, 10 uM peptide (% of best substrate): 28
[9]
  in vitro phosphorylation (% of best substrate): 2
[10]
  in vitro phosphorylation (% of best substrate): 19
[11]
  in vitro phosphorylation (% of best substrate): 10
[12]
  in vitro phosphorylation, 1 uM peptide (% of best substrate): 28
  in vitro phosphorylation, 10 uM peptide (% of best substrate): 34
[13]
  in vitro phosphorylation, 1 uM peptide (% of best substrate): 51
  in vitro phosphorylation, 10 uM peptide (% of best substrate): 31
[14]
  in vitro phosphorylation, 1 uM peptide (% of best substrate): 22
  in vitro phosphorylation, 10 uM peptide (% of best substrate): 37
[15]
  in vitro phosphorylation, 1 uM peptide (% of best substrate): 20
  in vitro phosphorylation, 10 uM peptide (% of best substrate): 17
[16]
  in vitro phosphorylation (% of best substrate): 5
[17]
  in vitro phosphorylation, 1 uM peptide (% of best substrate): 6
  in vitro phosphorylation, 10 uM peptide (% of best substrate): 9
[18]
  in vitro phosphorylation, 1 uM peptide (% of best substrate): 46
  in vitro phosphorylation, 10 uM peptide (% of best substrate): 57
[19]
  in vitro phosphorylation, 1 uM peptide (% of best substrate): 45
  in vitro phosphorylation, 10 uM peptide (% of best substrate): 32
[20]
  in vitro phosphorylation, 1 uM peptide (% of best substrate): 5
  in vitro phosphorylation, 10 uM peptide (% of best substrate): 37
[21]
  in vitro phosphorylation, 1 uM peptide (% of best substrate): 25
  in vitro phosphorylation, 10 uM peptide (% of best substrate): 61
[22]
  in vitro phosphorylation, 1 uM peptide (% of best substrate): 19
  in vitro phosphorylation, 10 uM peptide (% of best substrate): 19
[23]
  in vitro phosphorylation (% of best substrate): 38
[24]
  in vitro phosphorylation, 1 uM peptide (% of best substrate): 11
  in vitro phosphorylation, 10 uM peptide (% of best substrate): 13
[25]
  in vitro phosphorylation (% of best substrate): 3
[26]
  in vitro phosphorylation, 1 uM peptide (% of best substrate): 24
  in vitro phosphorylation, 10 uM peptide (% of best substrate): 49
[27]
  in vitro phosphorylation, 1 uM peptide (% of best substrate): 3
  in vitro phosphorylation, 10 uM peptide (% of best substrate): 6
[28]
  in vitro phosphorylation, 1 uM peptide (% of best substrate): 20
  in vitro phosphorylation, 10 uM peptide (% of best substrate): 20
[29]
  in vitro phosphorylation, 1 uM peptide (% of best substrate): 19
  in vitro phosphorylation, 10 uM peptide (% of best substrate): 6
